# Results: the nanobody polyreactivity screen of Harvey et al. (2022)
# Assay: yeast display, Sf9 membrane polyspecificity reagent, FACS + sequencing; frameworks hold sequencing errors
# In short: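 Synthetic nanobody libraries on Saccharomyces cerevisiae BJ5465 were galactose-induced for 36–48 hours, stained 1 hour at 4 °C with 10% biotinylated, detergent-solubilized Sf9 membrane reagent and enriched on streptavidin microbeads. FACS then separated cells into low and high (top ~1%) gates by anti-HA (expression) and streptavidin (reagent binding) fluorescence. Genes were colony-PCR amplified, MiSeq 2 × 250 sequenced and CDR-length filtered. A clone's polyreactivity label is that of its gate of origin.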
row,Sequence,polyreactivity (PSR sort gate)
1,QVQLVESGGGLVQAGGSLRLSCAASGSMFKNNAMGWYRQAPGKARELVAAISRSGGSTYYADSVKGRFTISRDNAKNTVYLPMNSLKPEDTAVYYCARDVDTHYPYAYDYWGQGTQVTVSS,high polyreactivity
2,QVQLVESGGGLVQAGGSLRLSCAASGSIFRRYAMGWYRQAPGKEREFVAAITGSGGRTYYADSVKGRFTISRDNAKNTVYLQMNSLKPEDTAVYYCAARRRDRVTYYYWGQGTQVTVSS,high polyreactivity
3,QVQLVESGGGLVQAGGSLRLSCAASGFTLFGYAMGWYRPAPGKERELVAAITRSGGSTFYADSVKGRFTISRDNAKNTVYLQMNSLKPEDTAVYYCAAVRSKLYYYWGQGTQVTVSS,high polyreactivity
4,QVQLVESGGGLVQAGGSLRLSCAPSGRTLFHYAMGWYRQAPGKERELVAAISSGGRTNYADSVKGRFTISRDNAKNTVYLQMNSLKPEDTAVYYCAARRFYLQHGFEYWGQGTQVTVSS,high polyreactivity
5,QVLLQESGGGLVQAGGSLRLSCAASGTISTDIRMGWYRLAPGKEPEFVASIDGCSTTYYADSVKVRFTISRDNAKNTVYLQMNSVIPEDSAMYYCAAREATEFYLYYWGQGTQVTVSS,low polyreactivity
6,QVQLVESAGGLVHAGGSLSLSCAASAILGNNAMGWYRQAPRKQRELVAAISARGGRTYYADSVKGRFTISRDNAKNTVYLQMNSLKPEDTAVYYCATLETSGVNYWGQGTQVTVSS,high polyreactivity
7,QVQLVESGGGLVQAGGSLRLSCAASGRTFHVYAMGWYRQAPGKERELVATITDGSTNYADSVKGRFTISRDNAKNTVYLQMNRLKPEDNAVYYCATVRDWIPSGDYEYWGQCTQVTVSS,low polyreactivity
8,QVQLVESGGGLVQAGGSLRLSCASSGITLRYYAMGWYRQAPGKERELVAAISSGGRTKYADSVKGRFTISRDNAKNTVYLQMNSLKPENTAVSYCGARKPYVTHTIDVLQAHDYWGQGTQVTVSS,high polyreactivity
9,QVQLVESGGGLVKAAGSLRLSSAASGSIFSYNAMGWNRQAPGKERELVAAITFTAGNTYYADSVKGRFTISRDNAKNTVYLQMNILKPEDTAVYYCAATIQSYREDDNWGQGTQVTVSS,low polyreactivity
10,QVHLVESGGGLVQAGGSLRLSCAASGSIIKRNAMGWYRQAPGKERELVATISSGDGSTRYADSVKGRFTISRDNAKNTVYLQMNSLKPEDSAVYYCAAASAAGYDYWGQGTQVTVSS,low polyreactivity
11,QVQLVESGGGLVQAGGSLRLSCAASGFIFQPYAMGWYRQAPGKERELVAAITSRGGRTYYADSVKGRITISRDNAKNTVYLQMNSLKPEDTAVYYCNADIYASEYYYWGQGTQVTVSS,low polyreactivity
12,QVQLVESGGGLVQAGGSLRLSCAASGFTSGYNVMGWYRQEPGKERELVAAISWRGTSTYYADSVKGRFTISRDNAKNTVYLQMNSLKPEDTAVYYCAADRYWRLSGYEYWGQGTQVTVSS,high polyreactivity
13,QVQLVESGGGLVQAGGSLRLSCAASGSTFLYYAMGWYRQAPGKERELVAAIDWSDTSTYYADSVKGRFTISRDNAKNTVYLQMNSLKPEDTAVYYCAADTYLVDGDYWGQGTQETVSS,low polyreactivity
14,QVQLVESGGGLVQAGGSLRLSCAASGRTSVIYAMGWYRQAPGKERELVASIRRGGSTSYADSVKGRFTISRDNAKNTVYLQMNSLIPEDTAVYYCAATLVRRARSGPMGYWGQGTQVTVSS,high polyreactivity
15,QVQLVETGGGLVQAGGSLRLSCAASGSTFDYNAMGWYRQAPGKERELVASITESGDSTYYADSVKGRFTISRDNAKNTVYLQMNSLKPEDTAVYYCAATQVHWVYVVYYEYEYWGQGTQVTVSS,low polyreactivity
16,QVQLVESGGGLVQAGGSLRLSCAASGRIFPAYAMGWYRQAPGKERELVAAITGGGSTNYADSVKGRFTISRDNAKHTVYLQMNSLKPEDTAVYYCNAAVVWPNRQENDYWGQGTQVTVSS,low polyreactivity
17,QVQLVESGGGLVQAGGSLRLSCADSGFIFSLYAMGWYRQAPGKERELVAAISKRGGSTNYADSVKGRFTISRDYAKNTVYLQMNSLKPEDTAVYYCAKARPGFLYDHWVQGTQVTVSS,high polyreactivity
18,QVQLVESGGGLVQAGGSLRLSCAASGSIFYGNAMGWYRQAPGKERELVAAISNVGRTDYADSVKGRFTISRDNAKNTVYLQMNSLKPEDTAVYYCAAGVYSGYNRYFAPRSWFGYYYWGQGTQVTVSS,low polyreactivity
19,QVQLVESGGGLVHAGGSLRLSCAACGSIYKYNAMGWYRQAPGKERELVAAISYSGCSTYYSDSVNGRFTISRDNAKNTVYLQMNSLKPEDTAVYYCAKSPRASQYNMYDYWGQGTKVTVSS,high polyreactivity
20,QVQLVESGGGLVQAGGSLRLSCAASGSTFSNYAMGWYRQAPGKERELVASISNGGSTNYADSVKGRFTISRDNAKNTVYLQMNSLKPEDTAVYYCNAESKAKYDYWGQGTQVTVSS,low polyreactivity
21,QVQLVESVGGLVQAGGSLRLSSSASGSNCVLNAIGWYRQAPGKEWELVAAITKVGSTYYADSVKGRFTISRDNAKNTVYLQMNSLIPEDTAVYYCNADPGEVLVGYDYWGQGTQVTVSS,low polyreactivity
22,QVQLVESGGGLVQAGGSLRLSCAASGFTFQYYAMGWYRQAPGKERELVAAISWSGGRTYYADSVKGRFTISRDIAKNTVYLQLNSLKPEDNAVYYCAASYIVYPARYEDEGDYWGQGTQVTVSS,high polyreactivity

row,Sequence,polyreactivity (PSR sort gate)
1,QVQLVESGGGLVQAGGSLRLSCAASGSIFGINVMGWYRQAPGKERELVAAISRSGSSTYYADSVKGRFTISRDNAKNTVYLQMNSLKPEDTAVYYCNADRSTWTVLVWEYDYWGQGTQVTVSS,low polyreactivity
2,QVQLVESGGGLDQAGGSLRLSCAASGSTVVRYAMGWYRQAPGKEREFVATISRRGGSTYYADSVKGRFTISRDNAKNTVYLQMNSLKPEDTAVYYCAKQGEAALPYIYDHWGQGTQVTVSS,low polyreactivity
3,QVQLVESGGGLVQAGGSLRLSCAASGRTFFYNTMGWYRQAPGKERELVAAISYRGGRTYYADSVKGRFTISRDNAKNTVYLQMNSLKPEDTAVYYCNAYSYGHYYWGQGTQVTVSS,high polyreactivity
4,QVQLVESGGGLVQAGGSLRLSCAASGRILYRNAMGWYRQAPGKERELVAAITTRGTSTYYADSVKGRFTISRDNAKNTVYLQMNSLKPEDTAVYYCAADSWFSYRGPLYYWGQGTQVTVSS,high polyreactivity
5,QVQLVESGGGLVQAGGSLRLSCAASGRIFSRYAMGWYRQAPGKERELVATISSSRGGTSTNYADSVKGRFTISRDNAKNTVYLQMNSLKPEDTAVYYCNALYGRQIVDYDYWGQGTQVTVSS,low polyreactivity
6,QVQLVESGGGLVQAGGSLRLSCAACGSIFYYYAMGWYRQAPGKERELVAAITVSGGRTYYADSVKGRFTISRDNAKNSVYLQMNSLKPEDTAVYYCAARRGRYSYYYWGQGTQVTVSS,high polyreactivity
7,QVQLVESGGGLVQAGGSLRLSCASTGSTFTTYAMGWYRQPPGKERELVAAISSRSTRTYYADSVKGRFTISRDNAKNTVYLQMNSLKPEDTAVYYCAASVPWKYEYWGQGTQVTVSS,high polyreactivity
8,QVQLVESGGGLVQAGGSLRLSCAASGFTFGSNTMGWYRQAPGKERELVAAITTSGDSTYYADSVKGRFTISRDNAKNTVYLQMNCLKPEDTAVYYCAAERRYGRYYRLVRLLGQGTQVTVSS,high polyreactivity
9,QDQLVESGVGLVQAGGSHRLSCAASGSIFGWYARGWYRQAPGKERELGATITTGGSTNYADSVKGRFTISRDNAKNTVYLQMNSLKPEDTAVYYCAAGYNTWYGQYGYWGQGTQVTVSS,low polyreactivity
10,QVQLVESGGGLVQAGGSLRLSCAASGSTFNTYAMGWYRQAPGKERELVASIRLRGGSTYYADSVKGRFTISRDNAKNTVYLQMNSLKPEDTAVYYCAARTWPWVLGGTQDDYWGQGTQVTVSS,low polyreactivity
11,QVQLVESGGGLVQAGGSLRLSCAASGSIFYAYAMGWYRQAPGKEREFVAVISRGGITNYADSVKGRFTISRDNAKNTVYLQMNSLKPEDTAVYYCAAATSAWGYLRRYGYWGQGTQVTVSS,low polyreactivity
12,QVQLVESGGGLVQAGGSLRLSCAASGSTFRVNAMGWYRQAPGKERELVAAIRKSGGSTYADSVKGRFTISRDNAKNTVYLQMNSLKPEDTAVYYCNADATAWLGWDDNYWGQGSQVTVSS,low polyreactivity
13,QVQLVESGGGLVQAGGSLRLSCAASGSIFGSYAMGWYRQAPGKERELVAAISKSGGNTYYADSVKGRFTISRDNAKNTVYLQMNSLKPEDTAVYYCAAYGFYRWRGYDYWGQGTQVTVSS,high polyreactivity
14,QVQLEESGGGLVHAGGSLRLSCAASGFTFKYNAMGWYRQAPGKEREFVASISSGSTNYADSVKGRFTISRDNAKNTVYLQMNSLKPEDTAVYYCAASVSRGKRFRYGYVFKMDYWGQGTQVTVSS,low polyreactivity
15,QVQLVESGGGLVQAGGRLRLSCAASGSTFYNYAMGWYRQAPGKERELVASIPWNGGSTYYADSVKGRFTISRDNAKNTVYLQMNSLKPEDTAVYYCAADWTWTYPYDYWGQGTQVTVSS,low polyreactivity
16,QVQLVESGGGLVQAGGSLRLSCAASGSTFLTNTMGWYRQAPGKERELVAAITLRGGRTYYADSVKGRFTISRDNAKNTVYLQMNSLKPEDTAVYYCNARNYYYPSDRDYWGQGTQVTVSS,low polyreactivity
17,QVQLVESGGGLVQAGGSLRLSCAASGRIFTGNVMGWYRQAPGKERELVAAITYRGGSTYYADSVKGRFTISRDNAKNTVYLQMNSLKPEDTAVYYCAAGYFLGHTYGGDYWGQGTQVTVSS,low polyreactivity
18,QVQLVESGGGLVQAGGSLRLSCAASGITLEVYAMGWYRQAPGKERELVAAITDSGGRTYYADSVKGRFTISRDNAKNTVYLQMNSLKPEDTAVYYCAADDTRVYGAGEYWGQGTQVTVSS,low polyreactivity
19,QVQLVESGGGLVQAGGSLRLSCAASGYVYVMGWYRQAPGKERELVAAISKNGGSTYYADSVKGRFTISRYNAKNTVYLQMNSLKPEDTAVYYCAAVSYHKTEYDYWGQGTQVTVSS,high polyreactivity
20,QVQLVESGGGLVQAGGSLRLICAASGSTFAIYAMGWYRPAPGKERELVAAITGRSGSTYYADSVKGRFTISRDNAKNTVFLQMNSLKPEDTAVYYCAAQGGYRRTPYIHRDYWGQGTQVTVSS,high polyreactivity
21,QVQLVVSGGGLVQAGGSLRLSCAASGITFFPYAMGWYRQAPGKERLLVASISDRGGTNYADSVKGRFTISRDNAKNTVYLQMNSLKPEDTAVYYSASDASTYAYYGGDYWGQGTQVTVSS,low polyreactivity
